# Laboratory results published in patent US11649285B2.
# Target: human VISTA, native (on anti-CD3-activated human T cells and PBMCs) (human (homo sapiens))
substance,measurement,value
control recombinant human IgG1 Fc,"division of CFSE-labeled human CD3+ T cells with plate-bound anti-CD3 and control rhIgG1Fc, flow cytometry (% CD3+ T cells dividing (72 hours))",> 40
